Molecular target: CCR9 ΔCT (human) (UniProt P51686)
UniProt P51686, sequence (P51686 1-334, stated change not applied): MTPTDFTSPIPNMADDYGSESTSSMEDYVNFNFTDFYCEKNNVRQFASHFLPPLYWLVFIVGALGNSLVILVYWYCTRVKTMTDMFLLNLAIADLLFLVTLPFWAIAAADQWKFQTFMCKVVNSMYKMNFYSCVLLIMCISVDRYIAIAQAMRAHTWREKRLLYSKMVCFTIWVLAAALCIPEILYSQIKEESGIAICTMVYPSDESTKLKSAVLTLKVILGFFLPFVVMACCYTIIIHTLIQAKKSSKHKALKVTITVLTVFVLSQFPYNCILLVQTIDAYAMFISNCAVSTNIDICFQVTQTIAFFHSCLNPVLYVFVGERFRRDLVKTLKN

G⍺i-Nluc (from UniProt P63096 1-354) (natural protein)
Gi activation: area over the G⍺i-Gβγ dissociation curve (AOC), against CCR9 WT: 6 fold

Reference: doi:10.1101/2024.11.01.621505
